# From PMC4493278 (Cell Research, 2015)
# Values joined by “and” are separate entries in the source; they are usually repeats but may differ in a detail not shown here. Equal entries are not always repeated. Where two headings read alike, the source gives them in different places.
# T1: Merlin FERM domain (Merlin-FERM, residues 1-320) (human, UniProt P35240 1-320)
# T1 sequence (looked up): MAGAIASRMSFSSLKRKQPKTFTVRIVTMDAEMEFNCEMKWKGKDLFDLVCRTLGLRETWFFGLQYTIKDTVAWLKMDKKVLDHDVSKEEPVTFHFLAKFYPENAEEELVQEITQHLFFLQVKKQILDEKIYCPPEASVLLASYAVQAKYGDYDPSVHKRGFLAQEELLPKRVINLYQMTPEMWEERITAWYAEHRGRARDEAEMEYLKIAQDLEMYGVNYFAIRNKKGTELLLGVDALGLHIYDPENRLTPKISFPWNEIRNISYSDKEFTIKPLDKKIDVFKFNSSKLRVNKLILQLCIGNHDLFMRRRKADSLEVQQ
# T2: S518A-Merlin (human, UniProt P35240 20-595, S518A)
# T2 sequence (looked up): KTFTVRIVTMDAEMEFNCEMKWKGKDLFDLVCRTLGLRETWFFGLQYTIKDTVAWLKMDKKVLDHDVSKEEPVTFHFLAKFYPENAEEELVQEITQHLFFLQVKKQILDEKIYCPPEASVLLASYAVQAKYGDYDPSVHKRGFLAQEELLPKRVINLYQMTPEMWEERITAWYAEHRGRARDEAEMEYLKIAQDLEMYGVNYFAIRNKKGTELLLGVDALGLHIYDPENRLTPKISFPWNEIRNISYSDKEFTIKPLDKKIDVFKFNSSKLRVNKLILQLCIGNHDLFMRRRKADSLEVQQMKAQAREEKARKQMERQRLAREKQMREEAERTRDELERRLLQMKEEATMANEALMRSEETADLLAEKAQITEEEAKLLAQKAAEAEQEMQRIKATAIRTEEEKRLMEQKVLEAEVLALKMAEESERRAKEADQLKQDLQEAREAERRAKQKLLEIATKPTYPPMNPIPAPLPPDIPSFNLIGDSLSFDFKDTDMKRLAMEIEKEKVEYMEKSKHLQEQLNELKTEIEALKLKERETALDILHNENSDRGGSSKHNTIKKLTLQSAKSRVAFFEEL
# T3: S518D-Merlin (human, UniProt P35240 20-595, S518D)
# T3 sequence (looked up): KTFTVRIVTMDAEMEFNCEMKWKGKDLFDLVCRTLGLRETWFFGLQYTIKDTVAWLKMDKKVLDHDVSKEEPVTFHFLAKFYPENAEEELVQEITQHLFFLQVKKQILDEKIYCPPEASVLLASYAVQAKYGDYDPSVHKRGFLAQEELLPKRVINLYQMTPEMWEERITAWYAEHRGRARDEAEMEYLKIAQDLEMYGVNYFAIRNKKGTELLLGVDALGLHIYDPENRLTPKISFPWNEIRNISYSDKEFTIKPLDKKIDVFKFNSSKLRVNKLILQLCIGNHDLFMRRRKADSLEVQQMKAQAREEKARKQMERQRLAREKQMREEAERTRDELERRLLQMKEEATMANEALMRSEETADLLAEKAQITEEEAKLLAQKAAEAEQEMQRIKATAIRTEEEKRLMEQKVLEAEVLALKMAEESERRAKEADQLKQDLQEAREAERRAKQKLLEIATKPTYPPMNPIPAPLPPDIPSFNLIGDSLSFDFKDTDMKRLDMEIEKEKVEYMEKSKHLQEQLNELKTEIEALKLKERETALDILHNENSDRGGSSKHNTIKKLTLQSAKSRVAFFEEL
# Columns and labels:
# [1] = molecular target: Moesin FERM domain (UniProt P26038)
# Moesin FERM domain, sequence (P26038 2-295): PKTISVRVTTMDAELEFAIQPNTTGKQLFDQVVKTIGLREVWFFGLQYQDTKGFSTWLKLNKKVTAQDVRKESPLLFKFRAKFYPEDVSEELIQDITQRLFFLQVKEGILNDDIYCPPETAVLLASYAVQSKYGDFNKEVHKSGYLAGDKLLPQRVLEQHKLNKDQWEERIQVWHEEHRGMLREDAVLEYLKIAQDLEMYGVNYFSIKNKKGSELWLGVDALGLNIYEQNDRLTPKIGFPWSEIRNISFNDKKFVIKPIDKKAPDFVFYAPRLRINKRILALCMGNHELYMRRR
# [2] = molecular target: entire C-terminal half of Merlin (human); experiment: SEC
# [3] = molecular target: T1, Merlin FERM domain (Merlin-FERM, …)
# [4] = molecular target: T1, Merlin FERM domain (Merlin-FERM, …); experiment: crystal structure
# [5] = molecular target: T2, S518A-Merlin; experiment: pull-down
# [6] = molecular target: T1, Merlin FERM domain (Merlin-FERM, …); experiment: ITC
# [7] = molecular target: T3, S518D-Merlin; experiment: ITC
# Moesin tail domain (domain or fragment), sequence (P26038 2-577): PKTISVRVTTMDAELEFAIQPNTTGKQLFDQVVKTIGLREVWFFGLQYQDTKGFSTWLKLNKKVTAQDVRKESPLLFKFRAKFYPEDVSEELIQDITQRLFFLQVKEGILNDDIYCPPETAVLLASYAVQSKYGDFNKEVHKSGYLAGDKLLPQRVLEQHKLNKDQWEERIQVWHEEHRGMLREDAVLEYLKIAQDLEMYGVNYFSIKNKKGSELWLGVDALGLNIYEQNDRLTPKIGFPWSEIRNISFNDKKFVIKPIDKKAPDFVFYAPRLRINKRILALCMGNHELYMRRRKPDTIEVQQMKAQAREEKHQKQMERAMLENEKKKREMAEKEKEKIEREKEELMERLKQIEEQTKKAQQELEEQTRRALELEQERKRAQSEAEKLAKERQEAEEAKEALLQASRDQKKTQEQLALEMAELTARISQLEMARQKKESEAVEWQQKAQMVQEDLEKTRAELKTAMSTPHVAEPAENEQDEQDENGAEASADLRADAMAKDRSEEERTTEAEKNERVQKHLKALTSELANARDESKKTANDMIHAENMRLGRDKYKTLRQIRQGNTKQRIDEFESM
molecule,measurement,setting,value
Moesin tail domain (domain or fragment),Kd,[1],16 nM
elongated α-helix-rich region of AMOT (residues 404-728 of AMOT-p130) (domain or fragment) ADPFAMVSRAQQMVEILSDENRNLRQELDGCYEKVARLQKVETEIQRVSEAYENLVKSSSKREALEKAMRNKLEGEIRRMHDFNRDLRDRLETANKQLAEKEYEGSEDTRKTISQLFAKHKENQREKEKLEAELATARSTNEDQRRHIEIRDQALSNAQAKVVKLEEELKKKQVYVDKVEKMQQALVQLQAACEKREQLEHRLRTRLERELESLRIQQRQGNSQPTNASEYNAAALMELLREKEERILALEADMTKWEQKYLEENVMRHFALDAAATVAAQRDTTVISHSPNTSYDTALEARIQKEEEEILMANKRCLDMEGRIK,stoichiometry N,[2],1
"Merlin-CTD-S518D (domain or fragment, human, UniProt P35240 507-595, looked up) FDFKDTDMKRLDMEIEKEKVEYMEKSKHLQEQLNELKTEIEALKLKERETALDILHNENSDRGGSSKHNTIKKLTLQSAKSRVAFFEEL",Kd,[3],~4000 nM
"Merlin C-terminal tail domain (Merlin-CTD, residues 507-595) (domain or fragment, human, UniProt P35240 507-595, looked up) FDFKDTDMKRLSMEIEKEKVEYMEKSKHLQEQLNELKTEIEALKLKERETALDILHNENSDRGGSSKHNTIKKLTLQSAKSRVAFFEEL",Kd,[3],~3000 nM and ~4000 nM
"Merlin-CTD bearing S518D/A585W substitutions (domain or fragment, human, UniProt P35240 507-595, looked up) FDFKDTDMKRLDMEIEKEKVEYMEKSKHLQEQLNELKTEIEALKLKERETALDILHNENSDRGGSSKHNTIKKLTLQSWKSRVAFFEEL",binding result,[4],binds
"PKFGTHHKALQEIRNSLLPFANETSSSRSPSE (domain or fragment, mouse, UniProt Q8BYR2 69-100, looked up) [Lats1 FERM-binding domain (Lats1-FBD, residues 69-100)]",binding result,[4],binds
"PKFGPYQKALREIRYSLLPFANESGTSAAAEV (domain or fragment, human, UniProt Q9NRM7 68-99, looked up) [Lats2 FERM-binding domain (Lats2-FBD, residues 68-99)]",binding result,[4],binds
"PKFGTHHKALQEIRNSLLPFANETSSSRSPSE (domain or fragment, mouse, UniProt Q8BYR2 69-100, looked up) [GST-tagged Lats1-FBD]",binding result,[5],binds
"ILDFNISLAMAKERAHQKRSSKRAPQMDWSKKNELFSNL (domain or fragment, human, UniProt O14745 320-358, looked up) [EBP50 C-terminal tail (EBP50-CT, residues 320-358)]",Kd,[6],~80 nM
same,binding result,[7],binds
"N-terminus of Lats1 (Lats1-NT, residues 1-153) (domain or fragment, mouse, UniProt Q8BYR2 1-153, looked up) MKRGEKPEGYRQMRPKTFPASNYPGSSRQMLQEIRESLRNLSKPSDASKAEHNLNKMSTEDPRQVRNPPKFGTHHKALQEIRNSLLPFANETSSSRSPSEVNPQMFQDLQAAGFDEDMVIQALQKTNNRSIEAAVEFISKMSYQDPRREQMSA",Kd,[6],~1400 nM
